Test results: CN112390879A (UNIV SHANGHAI TECHNOLOGY, dated 2021)

Legend:
生物素化RBD = 生物素化RBD (SARS-CoV-2, UniProt P0DTC2 319-541)
SARS-CoV-2 S蛋白 (野生型) = SARS-CoV-2 S蛋白 (野生型) (SARS-CoV-2, UniProt P0DTC2 14-1273); assay: cell-based or functional assay
SARS-CoV-2 S蛋白的RBD蛋白 [1] = target: T1, SARS-CoV-2 S蛋白的RBD蛋白 (SARS-CoV-2, UniProt P0DTC2 319-541); assay: ELISA, RBD coated at 2 μg/mL, 1F as human IgG1
T1 construct: domain: RBD

SARS-CoV-2 S蛋白的RBD蛋白 [2] = target: T1, SARS-CoV-2 S蛋白的RBD蛋白; assay: SPR, Biacore T200, RBD immobilised on CM5 chip, antibody in solution, 1:1 model

B1: 抗体1F (antibody, V domains shown)
VH: EVQLVESGPGLVKPSETLSLTCTVSGGSISSSSYYWGWIRQPPGKGLEWIGSIYYRGSTYYNPSLKSRVTISVDTSKNQFSLKLSSVTAADTAVYYCARHVRSAYYYGSGSYRDEGNWFDPWGQGTLVTVSS
VL: QSVLTQPPSVSGAPGQRVTISCTGTRSNIGAGHDVHWYQQLPGTAPKLLIYGNNNRPSGVPDRFSGAKSGTSASLAITGLQAEDEADYYCQSYDRTLTSYVFGTGTKVTVL
Question: Which results are given for B1?
Answer: IC50 (生物素化RBD): 0.213 µg/mL; 中和SARS-CoV-2活病毒 (Vero-E6细胞, RT-PCR) IC50 (SARS-CoV-2 S蛋白 (野生型)): 0.018 µg/mL; 中和野生型SARS-CoV-2假病毒 (293T-ACE2细胞, 荧光素酶) IC50 (SARS-CoV-2 S蛋白 (野生型)): 0.0464 µg/mL; EC50 (SARS-CoV-2 S蛋白的RBD蛋白 [1]): 0.0016 µg/mL; Kd (SARS-CoV-2 S蛋白的RBD蛋白 [2]): 0.077 nM
